# According to PMC3585263, “A Novel Ion Channel Formed by Interaction of TRPML3 with TRPV5” (PLoS ONE, 2013):
# T1: TRPML3 ( (human or mouse cDNA cloned), UniProt Q8R4F0 1-553)
# T1 construct: TRPML3 cation channel; pcDNA3.1 plasmids held full-length mouse TRPML3 (NM_134160) and human TRPML3 (NM_018298); 'full-length' is printed for the mouse cDNA; Stood as CFP fusion and as YFP fusion in the FRET pairs; also called mucolipin 3; source: HEK293, transiently transfected, in cells; not shown: YFP or CFP, C-terminal, kept
# T1 sequence (looked up): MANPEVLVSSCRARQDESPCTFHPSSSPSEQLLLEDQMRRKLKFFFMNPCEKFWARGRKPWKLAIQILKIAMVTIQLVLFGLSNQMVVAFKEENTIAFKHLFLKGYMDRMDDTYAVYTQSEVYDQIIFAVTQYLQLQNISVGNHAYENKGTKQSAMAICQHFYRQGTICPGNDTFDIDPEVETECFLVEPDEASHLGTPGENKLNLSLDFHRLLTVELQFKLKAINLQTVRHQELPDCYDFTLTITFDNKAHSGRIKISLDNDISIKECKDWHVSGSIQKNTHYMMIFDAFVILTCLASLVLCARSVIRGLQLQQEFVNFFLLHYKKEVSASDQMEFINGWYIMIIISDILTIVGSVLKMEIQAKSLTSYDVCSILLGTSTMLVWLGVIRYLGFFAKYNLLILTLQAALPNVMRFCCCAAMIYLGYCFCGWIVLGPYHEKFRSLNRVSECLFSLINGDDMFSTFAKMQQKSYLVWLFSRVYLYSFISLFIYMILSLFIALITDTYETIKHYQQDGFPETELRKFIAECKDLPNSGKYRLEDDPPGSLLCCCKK
# What was measured:
# [1] = target: TRPML3 (not stated (human or mouse cDNA cloned)) (UniProt Q8R4F0); assay: FRET or BRET; acceptor photobleaching FRET in transiently transfected HEK293 cells; C-terminal CFP and YFP fusions; FRET efficiency from the recovery of CFP fluorescence during YFP photobleaching
# [2] = target: T1, TRPML3; assay: as above; settings: partners not purified
# [3] = target: TRPV5 (mouse) (UniProt P69744)
# Sequence of TRPV5 (mouse) (P69744 whole entry): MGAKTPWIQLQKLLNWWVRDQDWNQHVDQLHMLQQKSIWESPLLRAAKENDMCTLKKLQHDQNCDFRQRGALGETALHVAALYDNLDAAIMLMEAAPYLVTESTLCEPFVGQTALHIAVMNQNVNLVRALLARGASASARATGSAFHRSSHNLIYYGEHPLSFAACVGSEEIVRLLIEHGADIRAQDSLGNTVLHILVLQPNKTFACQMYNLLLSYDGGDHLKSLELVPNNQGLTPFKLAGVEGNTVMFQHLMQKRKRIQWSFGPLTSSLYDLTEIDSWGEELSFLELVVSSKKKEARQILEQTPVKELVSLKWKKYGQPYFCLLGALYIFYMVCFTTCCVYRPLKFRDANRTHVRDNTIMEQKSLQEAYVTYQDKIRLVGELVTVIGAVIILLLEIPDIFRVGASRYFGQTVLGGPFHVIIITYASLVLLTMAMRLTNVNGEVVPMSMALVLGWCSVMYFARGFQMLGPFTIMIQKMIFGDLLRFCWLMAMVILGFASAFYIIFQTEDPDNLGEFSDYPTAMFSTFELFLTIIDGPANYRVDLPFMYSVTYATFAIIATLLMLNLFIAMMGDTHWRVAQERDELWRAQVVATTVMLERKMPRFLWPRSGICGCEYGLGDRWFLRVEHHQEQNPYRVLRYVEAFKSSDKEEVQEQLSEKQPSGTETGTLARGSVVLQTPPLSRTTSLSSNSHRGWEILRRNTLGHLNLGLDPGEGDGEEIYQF
# [4] = target: TRPV5 (mouse) (UniProt P69744); remark: listed apart in the source
molecule,measurement,setting,value
YFP alone,FRET efficiency,[1],< 5%
"TRPC6 (natural protein, UniProt Q9Y210 1-931, looked up, TRPC6 cation channel; construct and species not described; source: HEK293, transiently transfected, in cells; not shown: YFP or CFP, C-terminal, kept) MSQSPAFGPRRGSSPRGAAGAAARRNESQDYLLMDSELGEDGCPQAPLPCYGYYPCFRGSDNRLAHRRQTVLREKGRRLANRGPAYMFSDRSTSLSIEEERFLDAAEYGNIPVVRKMLEECHSLNVNCVDYMGQNALQLAVANEHLEITELLLKKENLSRVGDALLLAISKGYVRIVEAILSHPAFAEGKRLATSPSQSELQQDDFYAYDEDGTRFSHDVTPIILAAHCQEYEIVHTLLRKGARIERPHDYFCKCNDCNQKQKHDSFSHSRSRINAYKGLASPAYLSLSSEDPVMTALELSNELAVLANIEKEFKNDYKKLSMQCKDFVVGLLDLCRNTEEVEAILNGDVETLQSGDHGRPNLSRLKLAIKYEVKKFVAHPNCQQQLLSIWYENLSGLRQQTMAVKFLVVLAVAIGLPFLALIYWFAPCSKMGKIMRGPFMKFVAHAASFTIFLGLLVMNAADRFEGTKLLPNETSTDNAKQLFRMKTSCFSWMEMLIISWVIGMIWAECKEIWTQGPKEYLFELWNMLDFGMLAIFAASFIARFMAFWHASKAQSIIDANDTLKDLTKVTLGDNVKYYNLARIKWDPSDPQIISEGLYAIAVVLSFSRIAYILPANESFGPLQISLGRTVKDIFKFMVIFIMVFVAFMIGMFNLYSYYIGAKQNEAFTTVEESFKTLFWAIFGLSEVKSVVINYNHKFIENIGYVLYGVYNVTMVIVLLNMLIAMINSSFQEIEDDADVEWKFARAKLWFSYFEEGRTLPVPFNLVPSPKSLFYLLLKLKKWISELFQGHKKGFQEDAEMNKINEEKKLGILGSHEDLSKLSLDKKQVGHNKQPSIRSSEDFHLNSFNNPPRQYQKIMKRLIKRYVLQAQIDKESDEVNEGELKEIKQDISSLRYELLEEKSQNTEDLAELIRELGEKLSMEPNQEETNR",FRET efficiency,[2],< 5%
TRPML3 (natural protein) MANPEVLVSSCRARQDESPCTFHPSSSPSEQLLLEDQMRRKLKFFFMNPCEKFWARGRKPWKLAIQILKIAMVTIQLVLFGLSNQMVVAFKEENTIAFKHLFLKGYMDRMDDTYAVYTQSEVYDQIIFAVTQYLQLQNISVGNHAYENKGTKQSAMAICQHFYRQGTICPGNDTFDIDPEVETECFLVEPDEASHLGTPGENKLNLSLDFHRLLTVELQFKLKAINLQTVRHQELPDCYDFTLTITFDNKAHSGRIKISLDNDISIKECKDWHVSGSIQKNTHYMMIFDAFVILTCLASLVLCARSVIRGLQLQQEFVNFFLLHYKKEVSASDQMEFINGWYIMIIISDILTIVGSVLKMEIQAKSLTSYDVCSILLGTSTMLVWLGVIRYLGFFAKYNLLILTLQAALPNVMRFCCCAAMIYLGYCFCGWIVLGPYHEKFRSLNRVSECLFSLINGDDMFSTFAKMQQKSYLVWLFSRVYLYSFISLFIYMILSLFIALITDTYETIKHYQQDGFPETELRKFIAECKDLPNSGKYRLEDDPPGSLLCCCKK,"whole-cell current density of the novel current at −150 mV in standard bath solution (condition 1), HEK293 cells cotransfected with TRPV5 and TRPML3",[3],-0.129 nA/pF
same,"average open time, single channels of cotransfected HEK293 cells, first type of current, condition 1",[4],0.4 ms
same,"average open time, single channels of cotransfected HEK293 cells, second type of current, condition 1",[4],0.16 ms
same,"average open time, single channels of cotransfected HEK293 cells, second type of current, condition 2",[4],0.17 ms
same,"mean open time, single channels of cotransfected HEK293 cells, first type of current, condition 2",[4],5.98 ms
same,"single channel conductance at −150 mV, outside-out patches of cotransfected HEK293 cells, first type of current, condition 1",[4],32.3 pS
same,"single channel conductance, cotransfected HEK293 cells, first type of current, condition 2",[4],33.4 pS
same,"single channel conductance, cotransfected HEK293 cells, second type of current, condition 1",[4],34.6 pS
same,"single channel conductance, cotransfected HEK293 cells, second type of current, condition 2",[4],46.7 pS
"TRPV2 (natural protein, UniProt Q9Y5S1 1-764, looked up, TRPV2 cation channel; construct and species not described; source: HEK293, transiently transfected, in cells; not shown: YFP or CFP, C-terminal, kept) MTSPSSSPVFRLETLDGGQEDGSEADRGKLDFGSGLPPMESQFQGEDRKFAPQIRVNLNYRKGTGASQPDPNRFDRDRLFNAVSRGVPEDLAGLPEYLSKTSKYLTDSEYTEGSTGKTCLMKAVLNLKDGVNACILPLLQIDRDSGNPQPLVNAQCTDDYYRGHSALHIAIEKRSLQCVKLLVENGANVHARACGRFFQKGQGTCFYFGELPLSLAACTKQWDVVSYLLENPHQPASLQATDSQGNTVLHALVMISDNSAENIALVTSMYDGLLQAGARLCPTVQLEDIRNLQDLTPLKLAAKEGKIEIFRHILQREFSGLSHLSRKFTEWCYGPVRVSLYDLASVDSCEENSVLEIIAFHCKSPHRHRMVVLEPLNKLLQAKWDLLIPKFFLNFLCNLIYMFIFTAVAYHQPTLKKQAAPHLKAEVGNSMLLTGHILILLGGIYLLVGQLWYFWRRHVFIWISFIDSYFEILFLFQALLTVVSQVLCFLAIEWYLPLLVSALVLGWLNLLYYTRGFQHTGIYSVMIQKVILRDLLRFLLIYLVFLFGFAVALVSLSQEAWRPEAPTGPNATESVQPMEGQEDEGNGAQYRGILEASLELFKFTIGMGELAFQEQLHFRGMVLLLLLAYVLLTYILLLNMLIALMSETVNSVATDSWSIWKLQKAISVLEMENGYWWCRKKQRAGVMLTVGTKPDGSPDERWCFRVEEVNWASWEQTLPTLCEDPSGAGVPRTLENPVLASPPKEDEDGASEENYVPVQLLQSN",FRET efficiency,[2],< 5%
"TRPA1 (natural protein, UniProt O75762 1-1119, looked up, TRPA1 cation channel; construct and species not described; source: HEK293, transiently transfected, in cells; not shown: YFP or CFP, C-terminal, kept) MKRSLRKMWRPGEKKEPQGVVYEDVPDDTEDFKESLKVVFEGSAYGLQNFNKQKKLKRCDDMDTFFLHYAAAEGQIELMEKITRDSSLEVLHEMDDYGNTPLHCAVEKNQIESVKFLLSRGANPNLRNFNMMAPLHIAVQGMNNEVMKVLLEHRTIDVNLEGENGNTAVIIACTTNNSEALQILLKKGAKPCKSNKWGCFPIHQAAFSGSKECMEIILRFGEEHGYSRQLHINFMNNGKATPLHLAVQNGDLEMIKMCLDNGAQIDPVEKGRCTAIHFAATQGATEIVKLMISSYSGSVDIVNTTDGCHETMLHRASLFDHHELADYLISVGADINKIDSEGRSPLILATASASWNIVNLLLSKGAQVDIKDNFGRNFLHLTVQQPYGLKNLRPEFMQMQQIKELVMDEDNDGCTPLHYACRQGGPGSVNNLLGFNVSIHSKSKDKKSPLHFAASYGRINTCQRLLQDISDTRLLNEGDLHGMTPLHLAAKNGHDKVVQLLLKKGALFLSDHNGWTALHHASMGGYTQTMKVILDTNLKCTDRLDEDGNTALHFAAREGHAKAVALLLSHNADIVLNKQQASFLHLALHNKRKEVVLTIIRSKRWDECLKIFSHNSPGNKCPITEMIEYLPECMKVLLDFCMLHSTEDKSCRDYYIEYNFKYLQCPLEFTKKTPTQDVIYEPLTALNAMVQNNRIELLNHPVCKEYLLMKWLAYGFRAHMMNLGSYCLGLIPMTILVVNIKPGMAFNSTGIINETSDHSEILDTTNSYLIKTCMILVFLSSIFGYCKEAGQIFQQKRNYFMDISNVLEWIIYTTGIIFVLPLFVEIPAHLQWQCGAIAVYFYWMNFLLYLQRFENCGIFIVMLEVILKTLLRSTVVFIFLLLAFGLSFYILLNLQDPFSSPLLSIIQTFSMMLGDINYRESFLEPYLRNELAHPVLSFAQLVSFTIFVPIVLMNLLIGLAVGDIAEVQKHASLKRIAMQVELHTSLEKKLPLWFLRKVDQKSTIVYPNKPRSGGMLFHIFCFLFCTGEIRQEIPNADKSLEMEILKQKYRLKDLTFLLEKQHELIKLIIQKMEIISETEDDDSHCSFQDRFKKEQMEQRNSRWNTVLRAVKAKTHHLEP",FRET efficiency,[2],< 5%
"PKD2 (natural protein, UniProt Q13563 1-968, looked up, PKD2 (TRPP2) cation channel; construct and species not described; also called TRPP2; source: HEK293, transiently transfected, in cells; not shown: YFP or CFP, C-terminal, kept) MVNSSRVQPQQPGDAKRPPAPRAPDPGRLMAGCAAVGASLAAPGGLCEQRGLEIEMQRIRQAAARDPPAGAAASPSPPLSSCSRQAWSRDNPGFEAEEEEEEVEGEEGGMVVEMDVEWRPGSRRSAASSAVSSVGARSRGLGGYHGAGHPSGRRRRREDQGPPCPSPVGGGDPLHRHLPLEGQPPRVAWAERLVRGLRGLWGTRLMEESSTNREKYLKSVLRELVTYLLFLIVLCILTYGMMSSNVYYYTRMMSQLFLDTPVSKTEKTNFKTLSSMEDFWKFTEGSLLDGLYWKMQPSNQTEADNRSFIFYENLLLGVPRIRQLRVRNGSCSIPQDLRDEIKECYDVYSVSSEDRAPFGPRNGTAWIYTSEKDLNGSSHWGIIATYSGAGYYLDLSRTREETAAQVASLKKNVWLDRGTRATFIDFSVYNANINLFCVVRLLVEFPATGGVIPSWQFQPLKLIRYVTTFDFFLAACEIIFCFFIFYYVVEEILEIRIHKLHYFRSFWNCLDVVIVVLSVVAIGINIYRTSNVEVLLQFLEDQNTFPNFEHLAYWQIQFNNIAAVTVFFVWIKLFKFINFNRTMSQLSTTMSRCAKDLFGFAIMFFIIFLAYAQLAYLVFGTQVDDFSTFQECIFTQFRIILGDINFAEIEEANRVLGPIYFTTFVFFMFFILLNMFLAIINDTYSEVKSDLAQQKAEMELSDLIRKGYHKALVKLKLKKNTVDDISESLRQGGGKLNFDELRQDLKGKGHTDAEIEAIFTKYDQDGDQELTEHEHQQMRDDLEKEREDLDLDHSSLPRPMSSRSFPRSLDDSEEDDDEDSGHSSRRRGSISSGVSYEEFQVLVRRVDRMEHSIGSIVSKIDAVIVKLEIMERAKLKRREVLGRLLDGVAEDERLGRDSEIHREQMERLVREELERWESDDAASQISHGLGTPVGLNGQPRPRSSRPSSSQSTEGMEGAGGNGSSNVHV",FRET efficiency,[2],< 5%
